# According to patent US20190119394A1:
# Molecular target: Death receptor 4 (DR4) on primary human pancreatic stellate cells (human) (UniProt O00220)
# Assay: cell-based or functional assay
substance,measurement,value
"mapatumumab (human anti-DR4 antibody, Creative Biolabs)","caspase-3/7 activity (apoptosis marker), culture-activated PSCs, 10^3 ng/mL",1.27 fold
